Results as given in the DeepSol protein solubility set.

Test: soluble on expression in E. coli; label from the status in PepcDB or PDB records

| Sequence | soluble on expression in E. coli |
| --- | --- |
| MGSDKIHHHHHHMSSINYAEKIPNNVNLSEDRKLQRALESWQPHYIDWWKEMGPEGTSTSEIYLRTAISAEPDGWAQFGHVKMEDYRWGIFLAPPEKDRKVNFGAHKGEAAWQEVPGEYRSMLRRLITVQGDTEPASVEQQRLLGKCCPSLYDLRNLFQVNVEEGRHLWAMVYLLHAHFGKDGREEAEEMLARRSGDADKPRILGAFNEKTADWLAFFMFTFITDRDGKYQLCALAESGFDPLSRSCRFMLTEEAHHMFVGESGVGRIIERACQVMKENRTDDVRKFGVIDLPTIQRYLNFHYSVTSDLYGAEVSTNAATSYNMGIKGRYEETKIGDDHQLENTTYSVLHPVNGGFQAIEVPALNALNERLRLDWAEDVAKGVERWNKIIAKHGIDFKLTLPHLAFNRAIGHFSDIAVDPSGKVISTEEFARRRDEWLPSESDLAYVLSLMGSAVTKPGQFANWIAPPARGINNQAVDFDYVRFA | not soluble |
| MSLNLIFKKKSYSFKLSTKVENSKTTYLTKLGWIIKLTSNDKKIGFGEVSPLLEEDLKKCAKQLNMIPKNVEAFNLSEQINIFHPCIQSAINSALAEINGKIIFKENYTFDEIDKTAILLNSENVITELNEIKQRQSIIGKSVTIKWKVALRDNHEEEANLEEILSQIGNNIKLRIDANGSWSRKIANRWADILKDNKNIDWLEQPLCVEDIEGMKELNKKIPIALDESLLKFPTLIDEWKGWQIRRPSQENNPVKLLRELENKKALISISTSFETGIGKRWLYHLSSLQLQGPTPKVPGLGMNKFPNSFLFLNEAKKIWDQLEGHHHHHH | not soluble |
| MIGGSLDAFIGSVHRMAAALDGTIELVCGAFSSNAARSIQTGEALHLPKERIYASYEEMIVQEAQLPADVRMQFVSIVTPNHLHAQPALLALKHGFHVLCEKPLAFSVAEAEQLGIQVKETGLLFGLTHTYTAYPMVKEARDLIAKGKLGTIRKIIVEYPQGWLSAPIESDGQKQAGWRTDPAQAGLSCCVGDIGTHAENIAEYITGLKITELSADVSSVVAGRKLDDDANILLRFDNGAKGVLIASQIANGEENELKIRVYGEHAGLEWLQSEPNTLIVKQNDQPTQLRRAGANHSYLSEHARLHCRIPAGHPEGYIEAMANIYRNFSKAVHSFEDQITHNPLLDYPTIEDGIRGMKFIETVIISGKENATWKQLLEHHHHHH | soluble |
| MGLLVNGIWQDQWYDTESTGGRFVRHDSQFRHWITPDGSPGPTGHGGFKAEAGRYHLYVSLACPWAHRTLIFRKLKGLEGMIDVSVVHWLMRENGWTFAPGPGVMPDPLFNAEYLYQIYTRADAQYSGRVTVPILWDKQKQTIVNNESSEIIRIFNSAFDGLGAKSGDYYPKALRTQIDALNDRIYHTINNGVYKCGFATTQTAYEEAIAPLFESLDWLEGILQGHQYLTGDEITEADWRLFTTLIRFDVVYVGHFKCNLRRIQDYPNLWRYLRDLYHQPGIAETVNFQHIKGHYYESHLNINPTGIVPMGPALDLSLALEHHHHHH | not soluble |
| EVQLLESGGGLVQPGGSLRLSCAASGFTFSRYVMWWVRQAPGKGLEWVSYIWPSGGNTYYADSVKGRFTISRDNSKNTLYLQMNSLRAEDTAVYYCASSYDFWSNAFDIWGQGTMVTVSSASTKGPSVFPLAPCSRSTSESTAALGCLVKDYFPEPVTVSWNSGALTSGVHTFPAVLQSSGLYSLSSVVTVPSSSLGTKTYTCNVDHKPSNTKVDKRVES | soluble |
| MSERILPSTLRGVTNGQKEVTASVGERVPLLPRRFSARPQGNQEAQERTAVKCEQVRYAIQEVIGRGAFGEVSSAEVVGTRDLVAIKRVIHDGRLRQRELTLMRDHLGPNTQQGGVSSLDVGNGVGAHATSVTGSNGEEANGTTAIDGLESWNMPTIVPYHPCVVKLLDHFFASDPSGVQYLFMVMDYIPLDVRRLHHMFLRQREQQMPIILVKVIMFQLARALAFLHARGICHRDVKPNNILVDQETGVVKLCDFGSAKKMQAVGGEGPREKNVPYIFSRYYRAPELLLGSQYYHFHVDMWAFGCVLAELLCGKVLFKGSSSTMDQLVEIIKVLGKPSERELFALNPQSAGSALIRTWGDSHNASQLSPTPSGPLPSSNSANADYMQRRSAPRVKSLLWVEVLPPNTSQAALSLIEQLLRYTPEERLTSAEVLEHVFFDELFSDDARLPNGAPLPASMFQVTREEAEILPPWLLERMAAAEGVAKGRELNQSATAPENAI | not soluble |
| EITPLFFQKELATPVDNLKPYTALQMEGRDIYIREGCSNCHSQMIRPFRAETERYGHYSVAGESVWEHPFLWGSKRTGPDLARVGGRYSDDWHIAHLTDPRSVVPESNMPAYSWLNTDTLDGELTGKKLATFNFLTRNRSHKDENGNAIPLYTQAEIDGAKDAVKGKTEMSALIAYLQSLGH | not soluble |
| MSQQVTMSFSVVPQAKTKDVYSVVDKAIEVVQQSGVRYEVGAMETTLEGELDVLLDVVKRAQQACVDAGAEEVITSIKIHYRPSTGVTIDEKVWKYRDEYAKPEAI | soluble |
| MAAAGTLERSFVELSGAERERPRHFREFTVCSIGTANAVAGAVKYSESAGGFYYVESGKLFSVTRNRFIHWKTSGDTLELMEESLDINLLNNAIRLKFQNCSVLPGGVYVSETQNRVIILMLTNQTVHRLLLPHPSRMYRSVSWLSAISFISQITLGVTNVVLERCLLELKEIWILVIPHQAYFDSYRLKLEHHHHHH | not soluble |
| MEDKTLGLLLDVVGELFSDEISIAVSNTKEYIYYRPSKRIDLKISAGDPIKEGTIAHKAMVTNQKTSEFMNRDVFGIPYHGMAVPFSNNGKLEGCVTAIYPALTDGKSVVTLKTTDGWIPVPFSKVMYLEAKDKKTYVNAEELTGTHKYSLQEFEYLLPKDSFIRCHRSFIVNVNHIKAIYPDTHSTFLLSMDNGERVPVSQSYASYFRKLLGF | soluble |
| MKLPAPPVLLFLCGMFSLPMALADSGIQLDTPKGGWRTRAMDGEQYIQEVNYPASSVNTPQGQADTARIRGQIKGAPKANKEPGKLIVNGVSMPLKFDEQGSFDRPYAFPNGSNSVEVRSPDGQQRQRVQFLNTGGGVTPPKLRVLLSWDSDNTDLDLHLVTPDGAHIWYGDRVAPNGATLDVDVTTGYGPEIFSMPAPLKGQYLVYVNYYGGGYRSDDDEDGGQENAVQPLTTAQVTVITEEGTPDEKSETFVVPMRAPGELTLVRSFSYPLEHHHHHH | not soluble |
| MSGATEMAVSPDGKEVAFILRGDVYVTSVEYKTTKQVTNTPCQERGIDFAPDGRTLVYASERGGLWQLYTSTIVRKDEKQFTYATELKEERLTNSDIASFNPKYSPDGKEIAFLENRTAIRVINLKTKKVRTVMDAQYQYSYSDGDQWFEWSPDSKWILSEFIGIGGWNNKDIVLLNADGKGEMHNLTESGYSDGNAKWVLGGKAMVWFSDRAGYRSHGSWGAQYDAYIMFFDVDALEHHHHHH | not soluble |
| MAGDPMKKTILLTMTTLTLFSMSPNSAQAYTNDSKTLEEAKKAHPNAQFKVNKDTGAYTYTYDKNNTPNNNHQNQSRTNDNHQHANQRDLNNNQYHSSLSGQYTHINDAIDSHTPPQTSPSNPLTPAIPNVEDNDDELNNAFSKDNKGLITGIDLDELYDELQIAEFNDKAKTADGKPLALGNGKIIDQPLITSKNNLYTAGQCTWYVFDKRAKDGHTISTFWGDAKNWAGQASSNGFKVDRHPTRGSILQTVNGPFGHVAYVEKVNIDGSILISEMNWIGEYIVSSRTISASEVSSYNYIHLEHHHHHH | not soluble |
| MGSDKIHHHHHHTQTTEKENEFSMSMQIRPRAEYRNGALVPRNEGQKAASFINNRARLSLDYKRSDLEIKMSAQHVGVWGQDPQIDKNGRFILNEAWAKLDFGKGFFAQLGRQTLVYDDERILGGLDWNVAGRYHDALKLGYANKNNEIHAILAFNQNDEKTAGGTYYNSSIGQPYKNMQTVWYHYKADKIPFGASLLFMNLGLETGNQLTQDSHTRYLQTMGTYLTYKNSGWNLDGAFYYQTGKNKDAESVSAFMASATAAYAFNKTWGMVVSFDYLSGNEEGSSKFKAFDPLYGTHHKFYGSMDYFYASAFNKGFAPGLIDGRLGARFRASAKVDMELNYHYFATATEVDFKEDLKKSLGSEVDYQINWSVMKDVKLSAGYSFMLGTKTMDAVKGGNHKSWQDWGWVSVNINPKVFFTKW | not soluble |
